T1: APBA3_1, O96018
T1 sequence (O96018 389-490, limits assumed, looked up): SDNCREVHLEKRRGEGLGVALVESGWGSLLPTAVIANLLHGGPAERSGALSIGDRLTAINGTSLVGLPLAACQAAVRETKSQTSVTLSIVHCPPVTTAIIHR

T2: ARHGAP21, Q5T5U3
T2 sequence (Q5T5U3 45-169, limits assumed, looked up): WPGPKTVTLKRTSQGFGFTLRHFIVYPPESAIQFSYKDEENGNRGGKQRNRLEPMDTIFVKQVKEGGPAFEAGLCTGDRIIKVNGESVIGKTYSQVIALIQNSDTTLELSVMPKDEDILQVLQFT

T3: CARD11, Q9BXL7
T3 sequence (Q9BXL7 662-765, limits assumed, looked up): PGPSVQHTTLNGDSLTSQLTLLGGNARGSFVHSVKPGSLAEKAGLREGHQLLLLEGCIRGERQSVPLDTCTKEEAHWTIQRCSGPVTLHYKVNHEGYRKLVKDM

T4: DVL3, Q92997
T4 sequence (Q92997 244-331, limits assumed, looked up): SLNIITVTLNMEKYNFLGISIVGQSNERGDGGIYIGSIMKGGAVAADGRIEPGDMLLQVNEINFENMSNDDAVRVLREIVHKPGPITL

T5: MPDZ_10, O75970
T5 sequence (O75970 1624-1722, limits assumed, looked up): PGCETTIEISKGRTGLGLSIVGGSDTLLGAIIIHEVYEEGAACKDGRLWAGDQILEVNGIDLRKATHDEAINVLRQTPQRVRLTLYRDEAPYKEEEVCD

T6: MPP7, Q5T2T1
T6 sequence (Q5T2T1 134-230, limits assumed, looked up): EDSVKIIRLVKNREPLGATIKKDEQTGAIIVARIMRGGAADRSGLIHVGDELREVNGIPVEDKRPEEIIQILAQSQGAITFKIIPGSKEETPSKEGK

T7: NHERF3_4, Q5T2W1
T7 sequence (Q5T2W1 373-468, limits assumed, looked up): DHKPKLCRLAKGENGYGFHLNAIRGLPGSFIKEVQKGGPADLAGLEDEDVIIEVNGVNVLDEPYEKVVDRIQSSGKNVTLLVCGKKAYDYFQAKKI

T8: RADIL, Q96JH8
T8 sequence (Q96JH8 971-1071, limits assumed, looked up): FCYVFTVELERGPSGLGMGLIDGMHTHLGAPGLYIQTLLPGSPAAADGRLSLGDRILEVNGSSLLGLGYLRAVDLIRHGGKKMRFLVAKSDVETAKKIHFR


What follows are binders tested against T1, APBA3_1, O96018 (assay: holdup assay). Details: plain residues with an end cap or a label only (N-terminal biotin on a linker: ado-ado).
Set-up: key: below the threshold = too weak to quantify, mostly under pKd 3.1 to 4
For LETREPTNTL [GRIP1, Q9Y3R0], the pKd was “below the threshold”.

The binders below were run against T2, ARHGAP21, Q5T5U3 (assay: holdup assay). Details: plain residues with an end cap or a label only (N-terminal biotin on a linker: ado-ado).
Set-up: key: below the threshold = too weak to quantify, mostly under pKd 3.1 to 4
Binder LETREPTNTL [GRIP1, Q9Y3R0] has a pKd of 4.04.

What follows are binders tested against ARHGEF12, Q9NZN5-2 (assay: holdup assay). Details: plain residues with an end cap or a label only (N-terminal biotin on a linker: ado-ado).
ARHGEF12, Q9NZN5-2, sequence (Q9NZN5 other isoform, or with tags, fused parts or gaps): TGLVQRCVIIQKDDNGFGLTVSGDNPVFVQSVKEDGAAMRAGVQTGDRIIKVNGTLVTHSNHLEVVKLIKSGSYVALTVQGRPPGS
Set-up: key: below the threshold = too weak to quantify, mostly under pKd 3.1 to 4
With LETREPTNTL [GRIP1, Q9Y3R0] the pKd was “below the threshold”.

What follows are binders tested against T3, CARD11, Q9BXL7 (assay: holdup assay). Details: plain residues with an end cap or a label only (N-terminal biotin on a linker: ado-ado).
Set-up: key: below the threshold = too weak to quantify, mostly under pKd 3.1 to 4
For LETREPTNTL [GRIP1, Q9Y3R0], the pKd was “below the threshold”.

These binders were tested against DLG2_2, Q15700 (assay: holdup assay). Details: plain residues with an end cap or a label only (N-terminal biotin on a linker: ado-ado).
DLG2_2, Q15700, sequence (Q15700 189-283): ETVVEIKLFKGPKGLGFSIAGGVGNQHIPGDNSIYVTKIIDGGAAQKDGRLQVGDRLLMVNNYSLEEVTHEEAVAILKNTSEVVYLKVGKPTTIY
Set-up: key: below the threshold = too weak to quantify, mostly under pKd 3.1 to 4
For LETREPTNTL [GRIP1, Q9Y3R0], the pKd was “below the threshold”.

Each binder was assayed against DLG4_1, P78352 (assay: holdup assay). Details: plain residues with an end cap or a label only (N-terminal biotin on a linker: ado-ado).
DLG4_1, P78352, sequence (P78352 62-152): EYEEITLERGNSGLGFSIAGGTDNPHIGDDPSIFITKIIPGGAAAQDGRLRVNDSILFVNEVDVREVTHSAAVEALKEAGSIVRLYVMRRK
Set-up: key: below the threshold = too weak to quantify, mostly under pKd 3.1 to 4
In the case of LETREPTNTL [GRIP1, Q9Y3R0], the pKd is reported as “below the threshold”.

The binders below were run against T4, DVL3, Q92997 (assay: holdup assay). Details: plain residues with an end cap or a label only (N-terminal biotin on a linker: ado-ado).
Set-up: key: below the threshold = too weak to quantify, mostly under pKd 3.1 to 4
With LETREPTNTL [GRIP1, Q9Y3R0] the pKd was “below the threshold”.

What follows are binders tested against FRMPD2_3, Q68DX3 (assay: holdup assay). Details: plain residues with an end cap or a label only (N-terminal biotin on a linker: ado-ado).
FRMPD2_3, Q68DX3, sequence (Q68DX3 1073-1166): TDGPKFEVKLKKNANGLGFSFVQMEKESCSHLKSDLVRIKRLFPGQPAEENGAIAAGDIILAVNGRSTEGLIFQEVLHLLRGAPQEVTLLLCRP
Set-up: key: below the threshold = too weak to quantify, mostly under pKd 3.1 to 4
In the case of LETREPTNTL [GRIP1, Q9Y3R0], the pKd is reported as “below the threshold”.

Each binder was assayed against FRMPD4, Q14CM0 (assay: holdup assay). Details: plain residues with an end cap or a label only (N-terminal biotin on a linker: ado-ado).
FRMPD4, Q14CM0, sequence (Q14CM0 67-160): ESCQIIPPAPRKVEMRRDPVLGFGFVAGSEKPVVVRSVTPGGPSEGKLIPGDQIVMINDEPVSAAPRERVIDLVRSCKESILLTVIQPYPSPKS
Set-up: key: below the threshold = too weak to quantify, mostly under pKd 3.1 to 4
With LETREPTNTL [GRIP1, Q9Y3R0] the pKd was “below the threshold”.

What follows are binders tested against GORASP1, Q9BQQ3 (assay: holdup assay). Details: plain residues with an end cap or a label only (N-terminal biotin on a linker: ado-ado).
GORASP1, Q9BQQ3, sequence (Q9BQQ3 1-208): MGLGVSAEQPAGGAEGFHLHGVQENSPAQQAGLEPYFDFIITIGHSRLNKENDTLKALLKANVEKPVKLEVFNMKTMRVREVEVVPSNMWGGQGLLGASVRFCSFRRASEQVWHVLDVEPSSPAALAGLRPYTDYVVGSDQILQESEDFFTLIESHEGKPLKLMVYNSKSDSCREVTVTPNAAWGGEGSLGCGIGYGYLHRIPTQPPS
Set-up: key: below the threshold = too weak to quantify, mostly under pKd 3.1 to 4
With LETREPTNTL [GRIP1, Q9Y3R0] the pKd was “below the threshold”.

Each binder was assayed against GRIP2_5, Q9C0E4 (assay: holdup assay). Details: plain residues with an end cap or a label only (N-terminal biotin on a linker: ado-ado).
GRIP2_5, Q9C0E4, sequence (Q9C0E4 544-642): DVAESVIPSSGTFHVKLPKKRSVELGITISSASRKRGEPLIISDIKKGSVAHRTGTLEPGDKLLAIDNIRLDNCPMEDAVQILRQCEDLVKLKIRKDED
Set-up: key: below the threshold = too weak to quantify, mostly under pKd 3.1 to 4
In the case of LETREPTNTL [GRIP1, Q9Y3R0], the pKd is reported as “below the threshold”.

Each binder was assayed against Inadl_10, Q8NI35 (assay: holdup assay). Details: plain residues with an end cap or a label only (N-terminal biotin on a linker: ado-ado).
Inadl_10, Q8NI35, sequence (Q8NI35 1673-1763): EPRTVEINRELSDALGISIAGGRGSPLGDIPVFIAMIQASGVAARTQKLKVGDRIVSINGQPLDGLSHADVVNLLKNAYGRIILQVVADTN
Set-up: key: below the threshold = too weak to quantify, mostly under pKd 3.1 to 4
In the case of LETREPTNTL [GRIP1, Q9Y3R0], the pKd is reported as “below the threshold”.

Each binder was assayed against Inadl_6, Q8NI35 (assay: holdup assay). Details: plain residues with an end cap or a label only (N-terminal biotin on a linker: ado-ado).
Inadl_6, Q8NI35, sequence (Q8NI35 1058-1167): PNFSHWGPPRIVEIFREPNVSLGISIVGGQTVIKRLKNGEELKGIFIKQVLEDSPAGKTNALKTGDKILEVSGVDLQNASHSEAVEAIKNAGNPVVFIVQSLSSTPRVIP
Set-up: key: below the threshold = too weak to quantify, mostly under pKd 3.1 to 4
With LETREPTNTL [GRIP1, Q9Y3R0] the pKd was “below the threshold”.

These binders were tested against Inadl_9, Q8NI35 (assay: holdup assay). Details: plain residues with an end cap or a label only (N-terminal biotin on a linker: ado-ado).
Inadl_9, Q8NI35, sequence (Q8NI35 1530-1615): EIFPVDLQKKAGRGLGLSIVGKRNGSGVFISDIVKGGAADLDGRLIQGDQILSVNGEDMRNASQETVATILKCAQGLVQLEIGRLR
Set-up: key: below the threshold = too weak to quantify, mostly under pKd 3.1 to 4
For LETREPTNTL [GRIP1, Q9Y3R0], the pKd was “below the threshold”.

The binders below were run against LDB3, O75112 (assay: holdup assay). Details: plain residues with an end cap or a label only (N-terminal biotin on a linker: ado-ado).
LDB3, O75112, sequence (O75112 1-94): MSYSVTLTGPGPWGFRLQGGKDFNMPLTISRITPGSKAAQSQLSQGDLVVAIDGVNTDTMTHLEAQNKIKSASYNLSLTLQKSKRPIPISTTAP
Set-up: key: below the threshold = too weak to quantify, mostly under pKd 3.1 to 4
With LETREPTNTL [GRIP1, Q9Y3R0] the pKd was “below the threshold”.

Each binder was assayed against LNX1_1, Q8TBB1 (assay: holdup assay). Details: plain residues with an end cap or a label only (N-terminal biotin on a linker: ado-ado).
LNX1_1, Q8TBB1, sequence (Q8TBB1 261-371): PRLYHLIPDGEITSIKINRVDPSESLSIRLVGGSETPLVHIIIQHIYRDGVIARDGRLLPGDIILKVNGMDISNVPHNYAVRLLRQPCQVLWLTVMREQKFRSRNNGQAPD
Set-up: key: below the threshold = too weak to quantify, mostly under pKd 3.1 to 4
LETREPTNTL [GRIP1, Q9Y3R0] was tested, and the pKd was “below the threshold”.

These binders were tested against LNX1_2, Q8TBB1 (assay: holdup assay). Details: plain residues with an end cap or a label only (N-terminal biotin on a linker: ado-ado).
LNX1_2, Q8TBB1, sequence (Q8TBB1 371-470): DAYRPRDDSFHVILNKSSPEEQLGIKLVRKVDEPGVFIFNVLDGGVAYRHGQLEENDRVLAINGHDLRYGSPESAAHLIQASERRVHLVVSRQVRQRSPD
Set-up: key: below the threshold = too weak to quantify, mostly under pKd 3.1 to 4
With LETREPTNTL [GRIP1, Q9Y3R0] the pKd was “below the threshold”.

These binders were tested against MAGI1_1, Q96QZ7 (assay: holdup assay). Details: plain residues with an end cap or a label only (N-terminal biotin on a linker: ado-ado).
MAGI1_1, Q96QZ7, sequence (Q96QZ7 1-106): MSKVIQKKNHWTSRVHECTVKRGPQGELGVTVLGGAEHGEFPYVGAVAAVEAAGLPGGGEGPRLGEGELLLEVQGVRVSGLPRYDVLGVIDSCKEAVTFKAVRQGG
Set-up: key: below the threshold = too weak to quantify, mostly under pKd 3.1 to 4
LETREPTNTL [GRIP1, Q9Y3R0] was tested, and the pKd was “below the threshold”.

Each binder was assayed against MAGI2_2, Q86UL8 (assay: holdup assay). Details: plain residues with an end cap or a label only (N-terminal biotin on a linker: ado-ado).
MAGI2_2, Q86UL8, sequence (Q86UL8 410-522): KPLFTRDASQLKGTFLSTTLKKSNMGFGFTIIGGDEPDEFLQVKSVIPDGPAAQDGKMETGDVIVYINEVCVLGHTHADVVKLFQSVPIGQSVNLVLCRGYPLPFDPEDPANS
Set-up: key: below the threshold = too weak to quantify, mostly under pKd 3.1 to 4
With LETREPTNTL [GRIP1, Q9Y3R0] the pKd was “below the threshold”.

Each binder was assayed against MAGI2_3, Q86UL8 (assay: holdup assay). Details: plain residues with an end cap or a label only (N-terminal biotin on a linker: ado-ado).
MAGI2_3, Q86UL8, sequence (Q86UL8 600-682): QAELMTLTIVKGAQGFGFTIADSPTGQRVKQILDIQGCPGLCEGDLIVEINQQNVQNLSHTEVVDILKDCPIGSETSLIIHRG
Set-up: key: below the threshold = too weak to quantify, mostly under pKd 3.1 to 4
LETREPTNTL [GRIP1, Q9Y3R0] was tested, and the pKd was “below the threshold”.

These binders were tested against MAGI2_4, Q86UL8 (assay: holdup assay). Details: plain residues with an end cap or a label only (N-terminal biotin on a linker: ado-ado).
MAGI2_4, Q86UL8, sequence (Q86UL8 772-865): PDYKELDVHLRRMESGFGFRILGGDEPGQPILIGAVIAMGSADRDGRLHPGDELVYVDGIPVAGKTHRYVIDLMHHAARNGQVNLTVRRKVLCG
Set-up: key: below the threshold = too weak to quantify, mostly under pKd 3.1 to 4
For LETREPTNTL [GRIP1, Q9Y3R0], the pKd was “below the threshold”.

Each binder was assayed against MAGI3_2, Q5TCQ9 (assay: holdup assay). Details: plain residues with an end cap or a label only (N-terminal biotin on a linker: ado-ado).
MAGI3_2, Q5TCQ9, sequence (Q5TCQ9 398-503): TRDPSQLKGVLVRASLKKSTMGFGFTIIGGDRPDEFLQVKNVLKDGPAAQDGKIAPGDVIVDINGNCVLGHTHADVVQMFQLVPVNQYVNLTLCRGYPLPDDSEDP
Set-up: key: below the threshold = too weak to quantify, mostly under pKd 3.1 to 4
With LETREPTNTL [GRIP1, Q9Y3R0] the pKd was “below the threshold”.

These binders were tested against T5, MPDZ_10, O75970 (assay: holdup assay). Details: plain residues with an end cap or a label only (N-terminal biotin on a linker: ado-ado).
Set-up: key: below the threshold = too weak to quantify, mostly under pKd 3.1 to 4
In the case of LETREPTNTL [GRIP1, Q9Y3R0], the pKd is reported as “below the threshold”.

The binders below were run against T6, MPP7, Q5T2T1 (assay: holdup assay). Details: plain residues with an end cap or a label only (N-terminal biotin on a linker: ado-ado).
Set-up: key: below the threshold = too weak to quantify, mostly under pKd 3.1 to 4
LETREPTNTL [GRIP1, Q9Y3R0] was tested, and the pKd was “below the threshold”.

Each binder was assayed against T7, NHERF3_4, Q5T2W1 (assay: holdup assay). Details: plain residues with an end cap or a label only (N-terminal biotin on a linker: ado-ado).
Set-up: key: below the threshold = too weak to quantify, mostly under pKd 3.1 to 4
LETREPTNTL [GRIP1, Q9Y3R0] was tested, and the pKd was “below the threshold”.

The binders below were run against NOS1, P29475 (assay: holdup assay). Details: plain residues with an end cap or a label only (N-terminal biotin on a linker: ado-ado).
NOS1, P29475, sequence (P29475 9-101): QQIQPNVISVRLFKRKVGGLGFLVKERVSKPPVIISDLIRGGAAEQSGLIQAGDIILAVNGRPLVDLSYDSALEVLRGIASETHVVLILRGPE
Set-up: key: below the threshold = too weak to quantify, mostly under pKd 3.1 to 4
In the case of LETREPTNTL [GRIP1, Q9Y3R0], the pKd is reported as “below the threshold”.

The binders below were run against PDZRN4_1, Q6ZMN7 (assay: holdup assay). Details: plain residues with an end cap or a label only (N-terminal biotin on a linker: ado-ado).
PDZRN4_1, Q6ZMN7, sequence (Q6ZMN7 213-318): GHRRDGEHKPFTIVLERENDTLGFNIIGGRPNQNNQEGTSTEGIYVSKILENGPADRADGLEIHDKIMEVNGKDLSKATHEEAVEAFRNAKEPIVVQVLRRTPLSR
Set-up: key: below the threshold = too weak to quantify, mostly under pKd 3.1 to 4
For LETREPTNTL [GRIP1, Q9Y3R0], the pKd was “below the threshold”.

Each binder was assayed against PTPN3, P26045 (assay: holdup assay). Details: plain residues with an end cap or a label only (N-terminal biotin on a linker: ado-ado).
PTPN3, P26045, sequence (P26045 505-587): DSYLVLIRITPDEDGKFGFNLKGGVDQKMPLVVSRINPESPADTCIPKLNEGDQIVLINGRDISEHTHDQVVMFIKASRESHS
Set-up: key: below the threshold = too weak to quantify, mostly under pKd 3.1 to 4
LETREPTNTL [GRIP1, Q9Y3R0] was tested, and the pKd was “below the threshold”.

The binders below were run against T8, RADIL, Q96JH8 (assay: holdup assay). Details: plain residues with an end cap or a label only (N-terminal biotin on a linker: ado-ado).
Set-up: key: below the threshold = too weak to quantify, mostly under pKd 3.1 to 4
LETREPTNTL [GRIP1, Q9Y3R0] was tested, and the pKd was “below the threshold”.

The binders below were run against SCRIB_3, Q14160 (assay: holdup assay). Details: plain residues with an end cap or a label only (N-terminal biotin on a linker: ado-ado).
SCRIB_3, Q14160, sequence (Q14160 999-1103): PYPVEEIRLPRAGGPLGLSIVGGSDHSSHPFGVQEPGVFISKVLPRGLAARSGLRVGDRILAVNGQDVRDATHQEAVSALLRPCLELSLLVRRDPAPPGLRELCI
Set-up: key: below the threshold = too weak to quantify, mostly under pKd 3.1 to 4
With LETREPTNTL [GRIP1, Q9Y3R0] the pKd was “below the threshold”.

From PMC9482650, “Quantitative fragmentomics allow affinity mapping of interactomes” (Nature Communications, 2022)
